In US20110294748A1 (Janssen / Centocor, published 2011):

B1: peptide-Alkaline phosphatase-His6 fusion protein of clone 16 (other)
chain: AGCPSPMPPVDPGFYSAIVQLCRETPEMPVLENRAAQGDITTPGGARRLTGDQTAALRDSLSDKPAKNIILLIGDGMGDSEITAARNYAEGAGGFFKGIDALPLTGQYTHYALNKKTGKPDYVTDSAASATAWSTGVKTYNGALGVDIHEKDHPTILEMAKAAGLATGNVSTAELQGATPAALVAHVTSRKCYGPSATSEKCPGNALEKGGKGSITEQLLNARADVTLGGGAKTFAETATAGEWQGKTLREQAQTRGYQLVSDAASLNSVTEANQQKPLLGLFADGNMPVRWLGPKATYHGNIDKPAVTCTPNPQRNDSVPTLAQMTDKAIELLSKNEKGFFLQVEGASIDKQNHAANPCGQIGETVDLDEAVQRALEFAKKEGNTLVIVTADHAHASQIVAPDTKAPGLTQALNTKDGAVMVMSYGNSEEDSQEHTGSQLRIAAYGPHAANVVGLTDQTDLFYTMKAALGLKVPGGSGGGSGGGSGGGSGTPEMPVLENRAAQGDITTPGGARRLTGDQTAALRDSLSDKPAKNIILLIGDGMGDSEITAARNYAEGAGGFFKGIDALPLTGQYTHYALNKKTGKPDYVTDSAASATAWSTGVKTYNGALGVDIHEKDHPTILEMAKAAGLATGNVSTAELQGATPAALVAHVTSRKCYGPSATSEKCPGNALEKGGKGSITEQLLNARADVTLGGGAKTFAETATAGEWQGKTLREQAQTRGYQLVSDAASLNSVTEANQQKPLLGLFADGNMPVRWLGPKATYHGNIDKPAVTCTPNPQRNDSVPTLAQMTDKAIELLSKNEKGFFLQVEGASIDKQNHAANPCGQIGETVDLDEAVQRALEFAKKEGNTLVIVTADHAHASQIVAPDTKAPGLTQALNTKDGAVMVMSYGNSEEDSQEHTGSQLRIAAYGPHAANVVGLTDQTDLFYTMKAALGLKVPGNSHHHHHH
notes: Tested as bacterial culture supernatant; also called peptide-AP fusion clone 16
B2: PG-peptide fusion of clone 17 (protein G IgG domain with peptide SEQ ID NO: 13 at its C-terminus) (other)
chain: YKLILNGKTLKGETTTEAVDAATAEKVFKQYANDNGVDGEWTYDDATKTFTVTEDDIDEFLHQLHNLVNNVH
notes: also called PG-peptide fusion clone 17; fusion protein with peptide clone 17
B3: peptide-Alkaline phosphatase-His6 fusion protein of clone 17 (other)
chain: DDIDEFLHQLHNLVNNVHTPEMPVLENRAAQGDITTPGGARRLTGDQTAALRDSLSDKPAKNIILLIGDGMGDSEITAARNYAEGAGGFFKGIDALPLTGQYTHYALNKKTGKPDYVTDSAASATAWSTGVKTYNGALGVDIHEKDHPTILEMAKAAGLATGNVSTAELQGATPAALVAHVTSRKCYGPSATSEKCPGNALEKGGKGSITEQLLNARADVTLGGGAKTFAETATAGEWQGKTLREQAQTRGYQLVSDAASLNSVTEANQQKPLLGLFADGNMPVRWLGPKATYHGNIDKPAVTCTPNPQRNDSVPTLAQMTDKAIELLSKNEKGFFLQVEGASIDKQNHAANPCGQIGETVDLDEAVQRALEFAKKEGNTLVIVTADHAHASQIVAPDTKAPGLTQALNTKDGAVMVMSYGNSEEDSQEHTGSQLRIAAYGPHAANVVGLTDQTDLFYTMKAALGLKVPGGSGGGSGGGSGGGSGTPEMPVLENRAAQGDITTPGGARRLTGDQTAALRDSLSDKPAKNIILLIGDGMGDSEITAARNYAEGAGGFFKGIDALPLTGQYTHYALNKKTGKPDYVTDSAASATAWSTGVKTYNGALGVDIHEKDHPTILEMAKAAGLATGNVSTAELQGATPAALVAHVTSRKCYGPSATSEKCPGNALEKGGKGSITEQLLNARADVTLGGGAKTFAETATAGEWQGKTLREQAQTRGYQLVSDAASLNSVTEANQQKPLLGLFADGNMPVRWLGPKATYHGNIDKPAVTCTPNPQRNDSVPTLAQMTDKAIELLSKNEKGFFLQVEGASIDKQNHAANPCGQIGETVDLDEAVQRALEFAKKEGNTLVIVTADHAHASQIVAPDTKAPGLTQALNTKDGAVMVMSYGNSEEDSQEHTGSQLRIAAYGPHAANVVGLTDQTDLFYTMKAALGLKVPGNSHHHHHH
notes: Tested as bacterial culture supernatant; also called peptide-AP fusion clone 17

Columns and labels:
[1] = target: T1, soluble IGF1R (sIGF1R), extracellular domain of human insulin-like growth factor 1 receptor, carboxy-terminal … (human, UniProt P08069 31-932); assay: ELISA, culture supernatant on 2 µg/ml coated sIGF1R, Attophos detection
T1 construct: Bought from R&D Systems; GenBank NP-000866 is printed for the whole receptor; also called IFG1R
Method: The binding of purified peptide-AP fusion proteins to sIGF1R was assessed using ELISA against immobilized sIGF1R. Briefly, bacteria transformed with each peptide-AP fusion expression vector were grown overnight and the following day the cultures were clarified by centrifugation at 4,500 rpm, 4° C. The supernatants were collected and 75 μl of each supernatant was assayed for binding to 2 μg/ml sIGF1R immobilized on ELISA plates. The bound peptides were detected using the Attophos Substrate (Roche, Indianapolis, Ind.) following the manufacturer's recommendation and read using a Molecular Devices M5 plate reader.

[2] = target: T1, soluble IGF1R (sIGF1R), extracellular …; assay: ELISA, serially diluted PG-peptide fusion on coated sIGF1R
Method: Relative binding affinities of the PG-peptide fusions for sIGF1R were measured using ELISA. The Kds were determined using GraphPad Prism 4 software with a one site binding equation. 100 μl of 2 μg/ml sIGF1R(R&D Systems, Minneapolis, Minn.) in Dulbecco's Phosphate Buffer Saline (DPBS (−/−)) was coated onto a 96 well Black Maxisorp plates (Nunc, Rochester, N.Y.) overnight at 4° C. The plates were washed with TBST and the wells blocked with 200 μl/well Starting Block T20 (TBS) (Pierce, Rockford, Ill.) for 1 hr, room temperature with 300 rpm shaking. 75 μl/well of purified, serially diluted PG-peptide fusions, starting concentration 40 μM, was added into the wells and incubated for 1 h, room temperature with 300 rpm mixing; the volume was brought up to 100 μl with Starting Block T20. The plates were washed 3× with TBST and then probed with 100 μl/well Peroxidase labeled-Rabbit antibody (1:5000) (Rockland, Gilbertsville, Pa.), washed, and the signal was detected using 100 μl/well POD substrate (Roche, Indianapolis, Ind.). Chemiluminescence was detected using a Molecular Devices M5 plate reader.
The fusion protein with peptide clone 17 was unique in its binding profile in that the binding curve was bellshaped. […]

Binder | binding result [1] | binding result [2]
B1 | binds | 
B2 |  | binds
B3 | binds | 
